Among the data in patent US6723841 are EC50 of adenylate cyclase stimulation (cAMP) values, retold here.

Test [1] deals with human CRF1 receptor (human) (UniProt P34998). The test is described as follows: cell-based or functional assay.
Test [2] concerns the target T1, human CRF2α receptor (human) (UniProt Q13324).
T1 sequence: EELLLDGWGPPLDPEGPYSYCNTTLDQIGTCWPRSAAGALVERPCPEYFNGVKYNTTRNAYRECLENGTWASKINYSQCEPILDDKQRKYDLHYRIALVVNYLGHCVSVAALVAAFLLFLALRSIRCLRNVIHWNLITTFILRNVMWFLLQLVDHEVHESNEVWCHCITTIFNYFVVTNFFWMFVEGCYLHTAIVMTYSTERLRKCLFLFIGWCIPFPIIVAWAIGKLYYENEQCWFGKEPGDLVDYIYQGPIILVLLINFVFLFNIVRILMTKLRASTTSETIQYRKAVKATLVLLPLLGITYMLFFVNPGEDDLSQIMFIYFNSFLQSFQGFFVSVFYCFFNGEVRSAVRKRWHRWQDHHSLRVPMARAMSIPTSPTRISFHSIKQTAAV
Briefly: cell-based or functional assay.

Sequence of human CRF1 receptor (human) (P34998 24-415): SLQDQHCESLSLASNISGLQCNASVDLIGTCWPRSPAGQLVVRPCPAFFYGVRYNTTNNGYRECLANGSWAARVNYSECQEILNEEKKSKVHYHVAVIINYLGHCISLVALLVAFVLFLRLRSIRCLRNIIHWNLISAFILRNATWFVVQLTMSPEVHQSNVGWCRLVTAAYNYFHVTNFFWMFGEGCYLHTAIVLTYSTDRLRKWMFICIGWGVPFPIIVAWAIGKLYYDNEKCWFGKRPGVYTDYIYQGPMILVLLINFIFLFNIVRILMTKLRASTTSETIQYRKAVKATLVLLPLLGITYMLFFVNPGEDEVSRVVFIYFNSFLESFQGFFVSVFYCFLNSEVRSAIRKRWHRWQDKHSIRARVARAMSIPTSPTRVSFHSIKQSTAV

Regarding Urotensin I (peptide), the EC50 of adenylate cyclase stimulation (cAMP) in test [1] came to 4 nM; in test [2], 2 nM.

As to “Gly41 r/hCRF-OH (from UniProt P06850 154-194) (peptide)”, the EC50 of adenylate cyclase stimulation (cAMP) in test [1] was 800 nM; in test [2] it was > 1000 nM.

Consider α-helical oCRF(9-41) (peptide), for which the EC50 of adenylate cyclase stimulation (cAMP) in test [1] and in test [2] was > 1000 nM throughout.
